Measured values taken from publication PMC8510529 (mBio, 2021).

Legend:
[1] = molecular target: T1, JEV NS1 protein (Native Antigen) (Japanese encephalitis virus, strain not …, UniProt P27395); assay: ELISA; settings: both partners purified
T1 construct: source: bought: Native Antigen

[2] = molecular target: T2, full-length WNV NS1 (strain 382-99), wild type, expressed in HEK293T cells (West Nile virus, New York 1999, strain …, UniProt Q9Q6P4); assay: flow cytometry on cells; settings: one partner purified
T2 construct: also called WT NS1; WT WNV NS1; source: HEK293T, transfected (pFM-A1.2), on fixed cells

[3] = molecular target: T3, recombinant soluble WNV NS1 protein (Native Antigen) (West Nile virus, strain of bought …, UniProt Q9Q6P4); assay: ELISA; settings: both partners purified
T3 construct: also called recombinant WNV NS1; recombinant, hexameric WNV NS1; source: bought: Native Antigen

[4] = molecular target: T4, TBEV NS1 protein (Native Antigen) (Tick-borne encephalitis virus, strain …, UniProt P14336); assay: ELISA; settings: both partners purified
T4 construct: source: bought: Native Antigen

[5] = molecular target: T5, DENV2 NS1 protein (Native Antigen) (Dengue virus type 2, strain  …, UniProt P29990); assay: ELISA; settings: both partners purified
T5 construct: source: bought: Native Antigen
T5 sequence (P29990 776-1127): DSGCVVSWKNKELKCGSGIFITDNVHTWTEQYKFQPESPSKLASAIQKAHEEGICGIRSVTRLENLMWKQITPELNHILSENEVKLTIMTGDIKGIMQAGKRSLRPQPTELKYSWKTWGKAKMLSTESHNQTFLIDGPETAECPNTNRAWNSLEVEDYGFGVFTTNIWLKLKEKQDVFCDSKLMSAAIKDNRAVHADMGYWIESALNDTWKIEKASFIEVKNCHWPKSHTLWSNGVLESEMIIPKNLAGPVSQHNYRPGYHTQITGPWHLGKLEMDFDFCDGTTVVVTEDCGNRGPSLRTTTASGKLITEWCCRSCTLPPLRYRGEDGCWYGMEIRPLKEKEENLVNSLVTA

T1 sequence (P27395 795-1146): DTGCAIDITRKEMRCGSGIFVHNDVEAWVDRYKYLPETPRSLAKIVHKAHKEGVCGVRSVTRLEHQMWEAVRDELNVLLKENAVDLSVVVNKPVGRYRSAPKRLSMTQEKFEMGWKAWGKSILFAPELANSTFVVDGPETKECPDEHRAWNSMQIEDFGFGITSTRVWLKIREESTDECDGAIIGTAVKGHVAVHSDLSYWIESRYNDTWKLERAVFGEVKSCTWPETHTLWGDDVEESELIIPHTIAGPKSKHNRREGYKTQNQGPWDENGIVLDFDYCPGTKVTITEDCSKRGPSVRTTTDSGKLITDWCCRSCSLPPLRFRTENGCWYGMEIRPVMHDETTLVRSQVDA
T2 sequence (Q9Q6P4 792-1143): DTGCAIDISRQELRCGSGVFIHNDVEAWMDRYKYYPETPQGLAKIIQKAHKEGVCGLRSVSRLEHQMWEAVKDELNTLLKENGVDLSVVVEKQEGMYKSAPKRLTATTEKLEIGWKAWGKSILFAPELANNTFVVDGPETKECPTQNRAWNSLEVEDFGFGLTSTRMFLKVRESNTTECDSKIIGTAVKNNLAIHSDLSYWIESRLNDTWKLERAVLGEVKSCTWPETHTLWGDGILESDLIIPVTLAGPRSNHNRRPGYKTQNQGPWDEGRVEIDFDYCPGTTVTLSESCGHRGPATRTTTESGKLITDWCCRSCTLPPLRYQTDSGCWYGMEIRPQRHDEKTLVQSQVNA
T3 sequence (Q9Q6P4 792-1143): as above
T4 sequence (P14336 777-1128): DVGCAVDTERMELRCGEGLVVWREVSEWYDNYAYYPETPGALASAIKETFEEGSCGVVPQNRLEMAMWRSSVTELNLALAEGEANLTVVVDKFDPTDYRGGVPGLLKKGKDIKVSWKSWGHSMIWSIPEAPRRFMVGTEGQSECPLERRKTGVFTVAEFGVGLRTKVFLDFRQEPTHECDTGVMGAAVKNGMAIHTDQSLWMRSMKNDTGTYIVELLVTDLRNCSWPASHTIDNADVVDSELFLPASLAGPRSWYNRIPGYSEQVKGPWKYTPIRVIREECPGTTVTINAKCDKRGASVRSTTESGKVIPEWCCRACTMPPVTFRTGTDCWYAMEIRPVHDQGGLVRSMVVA

B1: WNV-120 (antibody, V domains shown)
VH: KVQLEESGGGWVKPGRSLRLSCGASGFRFDDYAMHWVRQVPGKGLEWVSGISWDSDGIGYADSVKGRFTISRDNAKNSLFLQMNSLRAEDTALYYCVKDKGWLIQGRFDSWGQGIRVTVSS
VL: DIVVTQSPDSLAVSLGERVTINCKTSQSVLYTFNNQNYLAWYQQKSGQPPKLLIYWASTRESGVPDRFSGSGSGTDFTLTISRLQAEDVAVYYCQQFYISPPGTFGQGTKVEIK
binding result [1]: binds
binding result [2]: binds
binding result [3]: binds

B2: WNV-96 (antibody, V domains shown)
VH: QVQLVQSGAEVKKPGASVKVSCRPSGYIFTNYYIEWVRQAPGQGLEWMGIINPSGGKTTYAQKFQGRVTMTSDTSTSTVYMELSSLRSDDTAVYYCARDGNGSDYWGQGTRVTVSS
VL: DVQMTQSPSSLSASVGDRVTITCRASQNINNYLNWYQQKPGRAPKLLIYATSNLESGVPSRFSGSRSGADFTLTISSLQPEDFASYYCQQSYNAPRTFGHGTKVEIK
notes: also called IgG1-WT variant of WNV-96
binding result [2]: binds
binding result [3]: binds

B3: WNV-98 (antibody, V domains shown)
VH: QVQLVESGGGLVKPGGSLRLSCAASGFPFTNYYMSWIRQAPGKGLEWISYITSRGDTAYYADSVKGRFTVARDNSKNSLYLQMNSLRAEDTAMYFCARGGDDYADSWGQGILVTVSS
VL: EIVLTQSPATLPLSPGERATLSCRASQSINTNLAWYQQKPGQAPRLLIYETSHRASAIPARFSGSGSGTDFTLKISSLEPEDLAIYYCQQYRNWPQTFGQGTRLEIK
binding result [2]: binds
binding result [3]: binds

B4: WNV-97 (antibody, V domains shown)
VH: QVQLVESGGGLVQPGGSLRVSCAASGFTFSTYEMNWVRQAPGKGLEWVSYISNSGTIIYYADSVKGRFTISRDNAKNSLYLQMNSLRAEDTAIYYCGRVLRDRDVVAGPPARVWDYYYYGMDVWGQGTTVTVSS
VL: DIVMTQSPLSLPVTPGEPASISCRSSQSLLHSSGYNCLDWYLQKPGQSPQLLIYLRSNRASGVPDRFSGSGSGTDFTLKISRVEAEDVGVYYCMQTLQTPWTFGQGTKVEIK
binding result [4]: binds

B5: WNV-103 (antibody, V domains shown)
VH: EVQLVESGGGLLQPGGSLRLSCAASGFSFSRYWMHWVRQAPGKGLIWVSRINTDGSTTIYADSVKGRFTVSRDNAKNTLFLQMSRLRPEDTAVYYCARVIASPGISYGMDVWGHGTTVTVSS
VL: SHELTQPPSVSVSPGQTATITCSGDALPKQYAYWYQQKSGQAPVLVIYKDTKRPSGIPERFSGSSSGTVVTLTISGVQAEDEADYYCQSADISSTYVVFAGGTKLTVL
binding result [2]: binds
binding result [3]: binds

B6: WNV-116 (antibody, V domains shown)
VH: QMQLVESGGGVVQPGRSLRLSCVASGFNFKTYVMNWVRQAPGKGLEWVAVILSDGDNKYYADSVKGRFTISRDNSKNTLFLQMDSLRADDTAVYYCTRVPHCSTSSCYKEYYNYYMDVWGKGTTVSVSS
VL: EIVLTQSPATLSLSPGDRATLSCRASQSLSTSLAWYQQKPGQAPRLVIYDASNRAADIPARFSGSGSGTDFTLTIRSLEPEDFAVYYCQQRSNWPPRYTFGQGTKLEIK
binding result [2]: binds
binding result [3]: binds

B7: WNV-95 (antibody, V domains shown)
VH: QVQLQESGPGLVKPSQTLSLTCTVSGGSINSGAFYWSWIRQHPGKGLEWIGFIYYSGSTYYNPSLRSRVTISVDTSKNQFSLKLISVTAADTAVYYCARDRPDDPGPYFDSWGRGTLVTVSS
VL: QSALTQPASVSGSPGQSITISCTGTSNDVGRYNSVSWYQQHPGNAPKLMIYDVSNRPSGVSNRFSGSKSGNTASLTISGLQAEDEADYYCSSYTSSSSVVFGGGTKLTVL
binding result [2]: binds
binding result [3]: binds

B8: WNV-99 (antibody, V domains shown)
VH: QVRLVESGGGVVQPGRSLRLSCAASGFTLSSYGMHWVRQAPGKGLEWVAIISYDGSDKYYADSVKGRFTISRDNSKNTLYLQMNSLRPEDTAMYYCAKPDRSSSPFAHWGQGTLVTVSS
VL: SYELTQPPSVSVSPGQTARITCSGDALPKQYAFWYQQKPGQTPVVVISKDSERPSGIPERFSGSSSGTTVTLTISGVQAEDEADYYCQSADSSGIWVFGGGTKLTVL
binding result [1]: binds
binding result [4]: binds
binding result [2]: binds
binding result [3]: binds

B9: WNV-104 (antibody, V domains shown)
VH: QVQLVESGGGVVQPGTSLRLSCAASGFTFRSYGMHWVRQAPGKGLEWVALIWYDGSNKYYADSVKGRFTISRDNSRSTLYLQMNSLRAEDTAVYYCARDLGEYDSLVGPLYTARLGYWGQGTLVTVSS
VL: DIQMTQSPSSLSASVGDRVTMTCQASQDISNYLNWYQQKPGKAPNLLIYDASNLETGVPSRFSGSGSGTDFTFTISSLQPEDIATYYCQQYDNLPITFGQGTRLEIK
binding result [2]: binds
binding result [3]: binds

B10: WNV-117 (antibody, V domains shown)
VH: EVQLLESGGGLVQPGGSLRLSCAASGFTFSNYAMSWVRQAPGKGLEWVSSISDRGDYTYYADSVKGRFTISRDKSRNTLYLQIKSLRAEDTAVYYCAKCWGRGSYSGIPD
VL: DIQMTQSPSSLSASVGDRVTISCQASHDITNFLNWYQQKPGKAPKLLIYDASNLEAGVPSRFSGSGSGTDFTFTISSLQPEDIATYYCQQYDNLFITFGQGTRLEIK
binding result [2]: binds
binding result [3]: binds

B11: WNV-100 (antibody, V domains shown)
VH: QLQLQESGSGLVKPSQTLSLTCTVSGDSIGSGGFSWTWIRQPPGKGLEWIGNIYHSGGTYYNPSLKSRVTISIDNSTHFSLKLSSVTAADSAVYYCARDRGMVIKRRPWSYGLDVWGQGTTVSVSS
VL: QSVLTQPPSASGTPGQRVTISCSGGSSNIGSNSVSWYQHLPRTAPKLLIYSNNQRSSGVPDRFSGSKSGTSASLAISGLQSDDEADYYCAAWDDSLHVLFGGGTKLTVL
binding result [1]: binds
binding result [4]: binds
binding result [5]: binds
binding result [2]: binds
binding result [3]: binds

B12: WNV-113 (antibody, V domains shown)
VH: QITLKESGPTLVKPTQTLTVTCTFSGFSLNTNGVGVGWIRQPPGKALEWLALIYWDDVKRYRPSLESRLTITKDTSKNQVVLTMTDMDPVDTGTYYCAHRFHSRGWYTFDYWGQGTRVTVSS
VL: SYVLTQPPSVSVAPGQTARITCGGNNIGGKNVHWYQQKPGQAPVLVVYDDNDRPSGIPERFSGSNSGNTATLTISRVEAGDEADFYCQVWDSNSEHVVFGGGTKLTVL
binding result [2]: binds
binding result [3]: binds
